According to US7217548B2, “N-acetylglucosaminlytransferase and polynucleotide encoding the same” (National Institute of Advanced Industrial Science and …, priority 2000, dated 2007):

Substrate: CC(=O)N[C@@H](C)C(=O)N[C@@H](C)C(=O)N1CCC[C@H]1C(=O)N[C@H](C(=O)N1CCC[C@H]1C(=O)N[C@H](C(=O)N[C@@H](C)C(=O)N[C@@H](C)C(=O)N1CCC[C@H]1C(N)=O)C(C)C)[C@@H](C)O[C@H]1O[C@H](CO)[C@@H](O)[C@H](O)[C@@H]1O
Assay: Substrate specificity and kinetic parameters of solubilized human OMGnT enzyme (S)
Assay type: biochemical
Conditions: other: 125 mM MOPS pH7.3, 0.2 mM UDP-GlcNAc, 7.5 mM MnCl2, 37° C., 2 hours, pH 7.3
Experimental: […] […] The reaction mixture was then filtered with a filter Ultrafree-MC (Millipore) having a pore size of 0.22 μm to remove solids, and analyzed by Wakopak 5C18-200 column (4.6×250 mm, Wako Pure Chemical Industries, Ltd.). The separation was carried out using concentration gradient with Solution A and Solution B at a flow rate of 1.0 ml/min. […] Peptide detection was carried out at 214 nm, and the radioactivity of each fraction was assayed using a liquid scintillation counter.
The activity of GnT-1 was assayed with a method by Yoshida et al. [Yoshida, S., Suzuki, M., Yamano, S., Takeuchi, M., Ikenaga, H., Kioka, N., Sakai, H., and Komano, T., Glycobiology, (1999), 9, 53–58] as described below. A 20 μl reaction solution was prepared by adding an enzyme source thereto so as to have a final concentration of 100 mM MES (pH 6.0), 20 mM MnCl2, 5 μM Manα1–6(Manα1–3)Manα1–6(Manα1–3)Manβ1–4GlcNAcβ1–4GlcNAc-PA(M5GN2-PA; Takara Shuzo, PA-Sugar Chain 017), 1 mM UDP-GlcNAc, 100 mM GlcNAc, 5 mM AMP, 1% Triton X-100, and 0.2% BSA. The reaction solution was incubated at 37° C. for 1 hour, and the reaction was terminated in boiling water. Thereafter, the reaction solution was analyzed by a reverse phase HPLC (Cosmosil 5C18-AR column) available from Nacalai Tesque. […]

B1: His-Xpress-sOMGnT(S) (Homo sapiens; M623V) (protein)
chain: SSAEEAECHWADTELNRRRRRFCSKVEGYGSVCSCKDPTPIEFSPDPLPDNKVLNVPVAVIAGNRPNYLYRMLRSLLSAQGVSPQMITVFIDGYYEEPMDVVALFGLRGIQHTPISIKNARVSQHYKASLTATFNLFPEAKFAVVLEEDLDIAVDFFSFLSQSIHLLEEDDSLYCISAWNDQGYEHTAEDPALLYRVETMPGLGWVLRRSLYKEELEPKWPTPEKLWDWDMWMRMPEQRRGRECIIPDVSRSYHFGIVGLNMNGYFHEAYFKKHKFNTVPGVQLRNVDSLKKEAYEVEVHRLLSEAEVLDHSKNPCEDSFLPDTEGHTYVAFIRMEKDDDFTTWTQLAKCLHIWDLDVRGNHRGLWRLFRKKNHFLVVGVPASPYSVKKPPSVTPIFLEPPPKEEGAPGAPEQT
notes: Ig kappa chain secretory signal (N); made in house; host or cells: HEK293T (transient, secreted into serum-free medium)
Q: B1 was tested. Which Km did it give?
A: Its Km is 1360 µM.
